According to patent publication US6462189:
Residue numbers refer to the chain shown, from its start.

B1: ubiquitin-binding monobody 422 (phage clone) (designed binder, not shown: large carriers; small tags and cut ends)
chain: VSDVPRDLEVVAATPTSLLISWDAPARWTLYYRITYGETGGNSPVQEFTVPGSKSTATISGLKPGVDYTITVYAVTRRWWWSKPISINYRT
notes: Library 4 clone obtained by panning on ubiquitin; no test of it as a single clone is reported
B2: ubiquitin-binding monobody 424 (phage clone) (designed binder, not shown: large carriers; small tags and cut ends)
chain: B1 chain with A26G, R27Q, W28R, L30F, W81A
notes: as for B1

Biological target: T1, Yeast ubiquitin (yeast, UniProt P0CG63 1-76)
T1 construct: mature; also called soluble ubiquitin; free ubiquitin
T1 sequence (P0CG63 1-76 limits assumed): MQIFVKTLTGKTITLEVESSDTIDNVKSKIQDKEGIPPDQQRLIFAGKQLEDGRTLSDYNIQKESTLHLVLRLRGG
Assay: clone obtained by phage panning on immobilized ubiquitin
Procedure: Libraries 2 and 4, described in Example VI above, were used to select ubiquitin-binding monobodies. Ubiquitin (1 μg in 50 μl sodium bicarbonate buffer (100 mM, pH 8.5)) was immobilized in the wells of a microtiter plate, followed by blocking with BSA (3% in TBS). Panning was performed as described above. In the first two rounds, 1 μg of ubiquitin was immobilized per well, and bound phage were elute with an acidic solution. From the third to the sixth rounds, 0.1 μg of ubiquitin was immobilized per well and the phage were eluted either with an acidic solution or with TBS containing 10 μM ubiquitin.

Row | Binder | binding result
1 | B1 | binds
2 | B2 | binds
